Patent publication EP4714976A1 (Sunshine Lake Pharma Co., Ltd., dated 2026)
Where a chain is given by its changes, count along the chain named.

B1: 3A8 scFv displayed on phage (scFv)
scFv: QVQLQQSGAELVKPGASVKMSCKASGYTFTIYNIHWVRQTPGQGLEWIGLIYPDNGDTSYNQKFKAKATLTADKSSSTAYMQLSSLTSEDSAVYYCARGGFDYWGQGTSLTVSSGGGGSGGGGSGGGGSDIVMTQSQKFMSTSVGDRVSVTCKASQNVGTNVAWYQQKPGQSPKALIYSASYRYSGVPDRFTGSGSGTDFTLTISNVQAEDLADYFCQQHYSTPYTFGGGTKLEMK
B2: 3F11 scFv displayed on phage (scFv)
scFv: B1 scFv with T30A, I31P, A209S, D214E, Y225F, G229S, M235I
B3: 3E7 scFv displayed on phage (scFv)
scFv: B1 scFv with S109T, D130N, N206G, F216Y, S222N, M235I
B4: 3H6 scFv displayed on phage (scFv)
scFv: QVQLQQSGAELVKPGASVKMSCKASGYTFSFYNIHWVRQTPGQGLEWIGLIYPDNGDTSYNQKFKAKATLTADKSSSTAYMQLSSLTSEDSAVYYCARGGFDYWGQGTTLTVSSGGGGSGGGGSGGGGSDIQMTQSPASLSASVGETVTITCRASENIYSYLAWYQQKQGKSPQLLVYNAKTLAEGVPSRFSGSGSGTQFSLKINSLQPEDFGSYYCQHHYGTPYTFGGGTKLEMK
B5: 2B1 scFv displayed on phage (scFv)
scFv: EVQLQQSGAELVKPGASVKMSCKASGYTFASYNLHWVKQTPGQGLEWIGLIYPENGDTSYNQKFKGKATLTADKSSSTAYIQLSSLTSEDSAVYFCARGGFDYWGQGTSLTVSSGGGGSGGGGSGGGGSDIQMIQSPASLSVSVGETVTITCRASENIYSNLAWYQQKQGKSPQLLVYNAKTLADGVPSRFSGSGSGTQYSLKINSLQPEDFGSYYCQHFWSTPYTFGGGTKLEIK
B6: 3D7 scFv displayed on phage (scFv)
scFv: QVQLQQSGAELVKPGASVKMSCKASGYTFSFYNMHWVKRTPGRGLEWIGLIYPDNGDTSYNQKFKGKATLTADTSSSTAYMQLSSLTSEDSAVYYCARGGLDYWGQGTSLTVSSGGGGSGGGGSGGGGSEIVLTQSPASLAVSLGQRATISCKASQSVDYDGDSYMNWYQQKPGQPPKLLIYGISNRFSGVPDRFSGSGSGTDFTLKISTIKPEDLGMYYCLQGTHQPYTFGGGTKLEIK
B7: 1A3 scFv displayed on phage (scFv)
scFv: QVQLQQPGAELVKPGASVKMSCKASGYTFASYNLHWVKQTPGQGLEWIGLIYPENGDTSYNQKFKGKATLTADKSSSTAYIQLSSLTSEDSAVYFCARGGFDYWGQGTTLTVSQGGGGSGGGGSGGGGSDIQMTQSPASLSASVGETVTITCGASENIYGALNWYQRKQGKSPQLLIYGATNLADGMSSRFSGSGSGRQYSLKISSLHPDDVATYYCQNVLSTPYTFGGGTKLEIK
B8: 1G6 scFv-Fc (Fc fusion)
chain: EIQLQQSGAELVKPGASVKMSCKASGYTFRYYNMHWVKRTPGQGLEWIGLIYPDNGDTSYNQKFKGKATLTADTSSSTAYMQLSSLTSEDSAVYYCARGGLDYWGQGTSLTVSSGGGGSGGGGSGGGGSNIVMTQSHKFMSTSVGDRVSITCKASQDVNTDVAWYQQKPGQSPKLLIYSASYRYTGVPTRFTGSGSGTDFTFTISGVQAEDLADYYCQQHYNTPYTFGGGTKLELKESKYGPPCPPCPAPEAAGGPSVFLFPPKPKDTLMISRTPEVTCVVVDVSQEDPEVQFNWYVDGVEVHNAKTKPREEQFNSTYRVVSVLTVLHQDWLNGKEYKCKVSNKGLPSSIEKTISKAKGQPREPQVYTLPPSQEEMTKNQVSLTCLVKGFYPSDIAVEWESNGQPENNYKTTPPVLDSDGSFFLYSKLTVDKSRWQEGNVFSCSVMHEALHNHYTQKSLSLSLG
notes: scFv-Fc dimer
B9: 3B4 scFv-Fc (Fc fusion)
chain: EVQLQQSGADLVKPGASVKMSCKASGYTFSYYNMHWVRRTPGQGLEWIGLIYPDNGDTSYNQKFKGKATLTADTSSSTAYMQLSSLTSEDSAVYYCARGGLDYWGQGTTLTVSSGGGGSGGGGSGGGGSDIQMIQSPASMSASVGETVTITCGASENIYGALNWYQRKQGKSPQLLIYGATNLADGMSSRFSGSGSGRQYSLKISSLHPDDVATYYCQNVLSTPYTFGGGTKLEMKESKYGPPCPPCPAPEAAGGPSVFLFPPKPKDTLMISRTPEVTCVVVDVSQEDPEVQFNWYVDGVEVHNAKTKPREEQFNSTYRVVSVLTVLHQDWLNGKEYKCKVSNKGLPSSIEKTISKAKGQPREPQVYTLPPSQEEMTKNQVSLTCLVKGFYPSDIAVEWESNGQPENNYKTTPPVLDSDGSFFLYSKLTVDKSRWQEGNVFSCSVMHEALHNHYTQKSLSLSLG
notes: scFv-Fc dimer
B10: 3D6 scFv-Fc (Fc fusion)
chain: QVQLQQSGAELVKPGASVKMSCKASGYTFRYYNMHWVKRTPGQGLEWIGLIYPDNGDTSYNQKFKGKATLTADTSSSTAYMQLSSLTSEDSAVYYCARGGLDYWGQGTSLTVSSGGGGSGGGGSGGGGSDIQMTQSPASLSVSVGETVTITCRASENIYSNLAWYQQKQGKSPQLLVYNAKTLADGVPSRFSGSGSGTQYSLKINSLQPEDFGSYYCQHFWSTPFTFGSGTKLELKESKYGPPCPPCPAPEAAGGPSVFLFPPKPKDTLMISRTPEVTCVVVDVSQEDPEVQFNWYVDGVEVHNAKTKPREEQFNSTYRVVSVLTVLHQDWLNGKEYKCKVSNKGLPSSIEKTISKAKGQPREPQVYTLPPSQEEMTKNQVSLTCLVKGFYPSDIAVEWESNGQPENNYKTTPPVLDSDGSFFLYSKLTVDKSRWQEGNVFSCSVMHEALHNHYTQKSLSLSLG
notes: scFv-Fc dimer
B11: 1C10 scFv-Fc (Fc fusion)
chain: B10 chain with Q132V, V142A, E156G, Y159H, S160N, N161Y, F225Y, S229G, L235M
notes: scFv-Fc dimer
B12: 3H9 scFv-Fc (Fc fusion)
chain: EIQLQQSGAELVKPGASVKMSCKASGYTFSFYNMHWVKRTPGQGLEWIGLIYPDNGDTSYNQKFKGKATLTADTSSSTAYMQLSSLTSEDSAVYYCARGGLDYWGQGTTLTVSSGGGGSGGGGSGGGGSDIVLTQSPASLSVSVGETVTITCRASENIYSNLAWYQQKQGKSPQLLVYAATNLADGVPSRFSGSGSGTQYSLKINSLQSEDFGSYYCQHFWGTPYTFGGGTKLELKESKYGPPCPPCPAPEAAGGPSVFLFPPKPKDTLMISRTPEVTCVVVDVSQEDPEVQFNWYVDGVEVHNAKTKPREEQFNSTYRVVSVLTVLHQDWLNGKEYKCKVSNKGLPSSIEKTISKAKGQPREPQVYTLPPSQEEMTKNQVSLTCLVKGFYPSDIAVEWESNGQPENNYKTTPPVLDSDGSFFLYSKLTVDKSRWQEGNVFSCSVMHEALHNHYTQKSLSLSLG
notes: scFv-Fc dimer

These binders were tested against T1, extracellular domain of FGFR2c protein (Example 1) (UniProt P21802 22-377) (assay: phage ELISA).
T1 construct: extracellular domain
T1 sequence (P21802 22-377): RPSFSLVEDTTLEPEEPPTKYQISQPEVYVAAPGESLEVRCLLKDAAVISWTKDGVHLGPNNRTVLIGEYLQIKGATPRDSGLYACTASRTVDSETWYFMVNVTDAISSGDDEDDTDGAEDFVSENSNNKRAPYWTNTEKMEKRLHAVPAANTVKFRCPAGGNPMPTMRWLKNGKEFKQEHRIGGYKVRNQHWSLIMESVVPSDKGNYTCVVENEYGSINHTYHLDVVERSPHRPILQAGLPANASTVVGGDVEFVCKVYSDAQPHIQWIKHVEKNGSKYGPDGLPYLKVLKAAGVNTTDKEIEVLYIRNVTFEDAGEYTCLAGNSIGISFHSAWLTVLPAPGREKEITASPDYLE

Binder | binding result
B1 | no binding
B2 | no binding
B3 | no binding
B4 | no binding
B5 | no binding

Target: T1, extracellular domain of FGFR2c protein …
Test: phage ELISA
Remark: another data set of the same source

Binder | OD (450 nm) value
B1 | 0.065
B2 | 0.045
B3 | 0.034
B4 | 0.062
B5 | 0.049
B6 | 0.037
B7 | 0.212

These binders were tested against T2, recombinant cynomolgus monkey FGFR2b (cynomolgus monkey) (assay: ELISA, antibody 1ug/mL).
T2 construct: extracellular domain; bought; also called cynomolgus macaque FGFR2b

Binder | OD (450 nm) value
B8 | 3.24
B9 | 3.32
B10 | 3.4
B11 | 3.3
B12 | 3.29

What follows are binders tested against FGFR2c (acro) (UniProt P21802 22-377) (assay: ELISA, antibody 10 µg/mL).
Sequence of FGFR2c (acro) (P21802 22-377): as above

Binder | OD (450 nm) value
B9 | 0.327
B10 | 0.542
B11 | 0.553
B12 | 0.45

The binders below were run against T3, human FGFR2b (Kaixia Biotechnology, catalog number FGR-HM1BB) (human, UniProt P21802-3 22-378) (assay: BLI, antibody on AHC2 sensor).
T3 construct: extracellular domain; bought; also called hFGFR2b; human FGFR2b protein
T3 sequence (P21802 other isoform, or with tags, fused parts or gaps): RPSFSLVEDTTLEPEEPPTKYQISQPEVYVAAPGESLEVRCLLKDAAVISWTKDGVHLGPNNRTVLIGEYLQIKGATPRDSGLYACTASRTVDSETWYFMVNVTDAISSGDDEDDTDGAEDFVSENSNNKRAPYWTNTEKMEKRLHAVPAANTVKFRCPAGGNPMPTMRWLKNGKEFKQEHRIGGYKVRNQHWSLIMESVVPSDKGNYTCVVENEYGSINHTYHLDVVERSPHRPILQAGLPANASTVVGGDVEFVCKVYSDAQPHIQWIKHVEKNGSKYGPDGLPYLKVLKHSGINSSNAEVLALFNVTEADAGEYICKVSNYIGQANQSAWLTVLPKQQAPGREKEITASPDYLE

Binder | Kd [nM] | koff [s⁻¹] | kon [M⁻¹ s⁻¹]
B8 | 3.97 | 0.00149 | 374000
B9 | 6.28 | 0.00195 | 311000
B10 | 15 | 0.00114 | 75900
B11 | 11.1 | 0.00278 | 250000
B12 | 5.69 | 0.00152 | 267000

What follows are binders tested against T4, FGFR2b on KATO III cells (human, UniProt P21802-3 22-822) (assay: flow cytometry, KATO III cells).
T4 construct: whole, on cells; also called KATO III cells that overexpress FGFR2b
T4 sequence (P21802 other isoform, or with tags, fused parts or gaps): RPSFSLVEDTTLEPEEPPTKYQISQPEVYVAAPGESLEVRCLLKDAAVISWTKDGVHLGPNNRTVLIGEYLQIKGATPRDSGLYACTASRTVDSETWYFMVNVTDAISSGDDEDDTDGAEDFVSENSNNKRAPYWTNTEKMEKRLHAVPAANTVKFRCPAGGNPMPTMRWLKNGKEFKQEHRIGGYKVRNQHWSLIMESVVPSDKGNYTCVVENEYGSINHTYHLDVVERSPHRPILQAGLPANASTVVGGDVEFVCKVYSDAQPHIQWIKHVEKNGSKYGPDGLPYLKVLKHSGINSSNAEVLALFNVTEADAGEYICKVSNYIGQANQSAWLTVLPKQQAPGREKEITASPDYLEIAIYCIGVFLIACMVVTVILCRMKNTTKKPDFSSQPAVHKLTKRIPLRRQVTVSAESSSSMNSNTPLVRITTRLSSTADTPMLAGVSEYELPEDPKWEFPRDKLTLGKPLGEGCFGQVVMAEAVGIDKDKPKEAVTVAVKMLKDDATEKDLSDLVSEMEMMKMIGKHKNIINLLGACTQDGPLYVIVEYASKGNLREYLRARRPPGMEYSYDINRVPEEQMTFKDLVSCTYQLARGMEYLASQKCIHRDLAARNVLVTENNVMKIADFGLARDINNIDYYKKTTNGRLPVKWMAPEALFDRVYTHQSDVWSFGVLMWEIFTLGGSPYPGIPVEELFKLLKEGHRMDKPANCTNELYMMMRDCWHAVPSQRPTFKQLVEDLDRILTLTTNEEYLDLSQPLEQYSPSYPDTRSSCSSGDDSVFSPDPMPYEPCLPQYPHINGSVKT

Binder | EC50 [µg/mL]
B8 | 0.186
B9 | 0.168
B10 | 0.136
B11 | 0.152
B12 | 0.161

What follows are binders tested against T3, human FGFR2b (Kaixia Biotechnology, …) (assay: ELISA, FGFR2b coated at 1 µg/ml).

Binder | EC50 [µg/mL]
B8 | 0.0235
B9 | 0.0166
B10 | 0.0369
B11 | 0.0159
B12 | 0.0278
